{
  "source": "paper PMC8626583",
  "about": "“Collagen’s primary structure determines collagen:HSP47 complex stoichiometry” (The Journal of Biological Chemistry, 2021)",
  "key": {"[1]": {"target": "T1, foldon-stabilized collagen model peptide with the guest GPRGFP", "assay": "AUC; sedimentation velocity with fluorescence detection; ATTO488-labelled foldon CMP at 1 μM with HSP47 at ratios (CMP:HSP47) 1:1 to 1:20; 20 mM HEPES, 150 mM NaCl pH 7.5; 42,000 rpm"}, "[2]": {"target": "T2, foldon-stabilized collagen model peptide with the guest GPRGPP", "assay": "AUC; sedimentation velocity with fluorescence detection; ATTO488-labelled foldon CMP at 1 μM with HSP47 at ratios (CMP:HSP47) 1:1 to 1:20; 20 mM HEPES, 150 mM NaCl pH 7.5; 42,000 rpm"}, "[3]": {"target": "T1, foldon-stabilized collagen model …", "assay": "ELISA; collagen model peptides or collagen I coated on Nunc MaxiSorp (500 ng/well), blocked with 1% BSA in TBS; soluble HSP47 in a 1:4 dilution series from 8 or 10 μM; detected by anti-His-HRP; triplicates, four-parameter logistic fit"}, "[4]": {"target": "T2, foldon-stabilized collagen model …", "assay": "ELISA; collagen model peptides or collagen I coated on Nunc MaxiSorp (500 ng/well), blocked with 1% BSA in TBS; soluble HSP47 in a 1:4 dilution series from 8 or 10 μM; detected by anti-His-HRP; triplicates, four-parameter logistic fit"}},
  "note": "Several values for one entry are separate records, joined by “and”; a condition that tells them apart may be missing. Equal values may be shown once.",
  "data": [
    {"binder": "HSP47 (heat shock protein 47), Canis lupus, residues 36-418 with C-terminal hexahistidine tag, C7C419 36-418 (natural protein) LSPKAATLAERSAGLAFSLYQAMAKDQAVENILLSPVVVASSLGLVSLGGKATTASQAKAVLSAEQLRDEEVHAGLGELLRSLSNSTARNVTWKLGSRLYGPSSVSFAEDFVRSSKQHYNCEHSKINFRDKRSALQSINEWAAQTTDGKLPEVTKDVERTDGALLVNAMFFKPHWDEKFHHKMVDNRGFMVTRSYTVGVTMMHRTGLYNYYDDEKEKLQIVEMPLAHKLSSLIILMPHHVEPLERLEKLLTKEQLKIWMGKMQKKAVAISLPKGVVEVTHDLQKHLAGLGLTEAIDKNKADLSRMSGKKDLYLASVFHATAFEWDTEGNPFDQDIYGREELRSPKLFYADHPFIFLVRDTQSGSLLFIGRLVRPKGDKMRDEL", "values": [
      {"measurement": "stoichiometry N (HSP47 per CMP trimer)", "setting": "[1]", "result": 1},
      {"measurement": "stoichiometry N (HSP47 per CMP trimer)", "setting": "[2]", "result": 2},
      {"measurement": "Kd", "setting": "[3]", "result": 0.012, "unit": "µM"},
      {"measurement": "Kd", "setting": "[4]", "result": "0.036 µM and 0.0217 µM"}
    ]}
  ]
}
